One test deals with CD22 (UniProt P20273). Briefly: Malibu-Glo assay; NLuc fusion supernatant on RAJI cells, control K562 cells.
The target of a further test is CD33 (UniProt P20138). Description: Malibu-Glo assay; NLuc fusion supernatant on HL60 cells, control Jurkat cells.
Chain of CD33 (P20138 18-364 limits assumed): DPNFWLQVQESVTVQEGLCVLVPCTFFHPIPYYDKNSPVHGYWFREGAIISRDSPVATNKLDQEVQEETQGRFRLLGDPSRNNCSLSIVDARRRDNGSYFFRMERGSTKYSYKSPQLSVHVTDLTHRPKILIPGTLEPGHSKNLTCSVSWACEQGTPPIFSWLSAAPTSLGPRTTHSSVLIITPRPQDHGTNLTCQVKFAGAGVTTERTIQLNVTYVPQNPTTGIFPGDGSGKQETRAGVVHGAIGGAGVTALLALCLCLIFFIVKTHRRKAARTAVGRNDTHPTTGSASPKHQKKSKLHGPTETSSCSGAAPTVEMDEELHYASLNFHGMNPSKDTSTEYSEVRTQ

Chain of CD22 (P20273 20-847 limits assumed): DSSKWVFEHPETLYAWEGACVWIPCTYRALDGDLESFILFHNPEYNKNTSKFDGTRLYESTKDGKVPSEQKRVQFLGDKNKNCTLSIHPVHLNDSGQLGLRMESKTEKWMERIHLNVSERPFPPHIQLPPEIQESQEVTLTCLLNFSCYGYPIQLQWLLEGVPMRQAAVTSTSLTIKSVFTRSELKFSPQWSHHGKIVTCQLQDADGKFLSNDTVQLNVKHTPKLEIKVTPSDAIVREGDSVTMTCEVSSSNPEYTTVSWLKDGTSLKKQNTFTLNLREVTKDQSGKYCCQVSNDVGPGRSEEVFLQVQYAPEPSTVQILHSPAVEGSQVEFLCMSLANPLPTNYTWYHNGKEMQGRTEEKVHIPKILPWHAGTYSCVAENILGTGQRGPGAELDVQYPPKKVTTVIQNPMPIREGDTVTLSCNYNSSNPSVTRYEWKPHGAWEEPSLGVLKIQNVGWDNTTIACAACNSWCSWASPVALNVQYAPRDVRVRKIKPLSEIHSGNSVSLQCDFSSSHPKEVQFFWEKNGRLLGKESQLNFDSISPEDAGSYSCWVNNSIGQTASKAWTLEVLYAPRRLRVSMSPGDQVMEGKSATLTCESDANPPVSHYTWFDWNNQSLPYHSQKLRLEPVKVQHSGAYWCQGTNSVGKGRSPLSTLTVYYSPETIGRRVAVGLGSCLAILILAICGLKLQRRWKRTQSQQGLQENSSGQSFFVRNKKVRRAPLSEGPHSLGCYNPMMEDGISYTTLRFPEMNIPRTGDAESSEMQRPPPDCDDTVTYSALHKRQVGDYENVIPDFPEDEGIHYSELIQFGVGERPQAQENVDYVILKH

B1: hu-077-USC1 vHH (CD22), NLuc fusion (VHH, part only; not given: NLuc luciferase fusion partner, part only)
VHH, part: QVQLQESGPGLVKPSQTLSLTCTVSGGSITTGEFYWNWFRQPPGKGLEWMGAIAASGSTTYSPSFESRTSISRDTSKNQFSLKLSSVTAADTAVYYCGRSFGVAAVTTGQNRGQGTLVTVSS
B1 yielded a Fold Change (Luc activity, target cell line over control cell line) in the test with CD22 of 4.32 fold.

B2: hA873-G30S vHH (CD33), NLuc fusion (VHH, part only; not given: NLuc luciferase fusion partner, part only)
VHH, part: QVQLVESGGGVVQPGRSLRLSCVASGYTYSINCMGWFRQAPGKGREGIAAISTGGGTTGVADSVKGRFTISQDNAKNTVYLQMNSLRAEDTAMYYCAARSTYSGYACVYSEVNGYNYRGQGTQVTVSS
As for B2, the Fold Change (Luc activity, target cell line over control cell line) with CD33 was determined as 17 fold.

Values taken from patent US20260226133A1.
